Experimental findings from the DeepSol protein solubility set are described below.

The nature of this data set: soluble on expression in E. coli; label from the status in PepcDB or PDB records.
With “MGSDKIHHHHHHMVIAVRRILIREEYCMGCKLCEINCVAAQVGTGNLIKVYRYVPELPEPNVIVEEHDYVTFALQCRNCDDPSCLKACMTGAMHRDPKTGAIRVNQEKCVGCWMCVMACPFGVIRRNTKEKKVASKCDLCADRGTPGCVEGCPNEALVLVEVRE”, the “soluble on expression in E. coli” value is reported as “not soluble”. For “MASINWSEISTVLIDMDGTILDLHFDNHFWLEHLPARYSEKMSISLDAAKAKLKADYLSVVGTIKWYCLDYWAEQTQMPITELKREIQHLIQLRTDARDFLIALKASGRDVVLVTNAHPESLSLKIERTQLDQYFDVLYSTHDFGVTKESQLLWQRLQEKHGFDCDSTLFIDDSIEILQSAQQYGIKHLLAVANPDSKKTANVITDFPAITSFDLLTAQLSKELINSTSN”, the “soluble on expression in E. coli” value is “not soluble”.

For “MSLGIPKHDFYLYQSQWVSVKKKPMVHLLPHWNWENKELASKVADSEGKIPVRAYSNASSVELFLNGKSLGLKTFNKKQTSDGRTYQEGANANELYLEWKVAYQPGTLEAIARDESGKEIARDKITTAGKPAAVRLIKEDHAIAADGKDLTYIYYEIVDSQGNVVPTANNLVRFQLHGQGQLVGVDNGEQASRERYKAQADGSWIRKAFNGKGVAIVKSTEQAGKFTLTAHSDLLKSNQVTVFTGKKEGQEKTVLGTEVPKVQTIIGEAPEMPTTVPFVYSDGSRAERPVTWSSEGHHHHHH”, the “soluble on expression in E. coli” value is on record as “soluble”. As to “MLTFLIPTAKEMTIPKESHPHLLPQDSQAILKIMAAMTTEDLAKSYRIKEESAKKEQQRWQDMASQQSLAYPAYQLFNGLMYRHIKRDKLTTQEQAYLTQQVYITSSFYGIIPANHPIAEHRHDFHTRIKIEGQSLKSYWRPCYNQFAKEHPQVISLLSSEFDDVFSKDCKQLWISPKFMAEKEGQFKTHSTISKKARGAFLTACMENNCQTVDSLKSLVFAGFYYHPDLSTDHEFVYIKKEA”, the “soluble on expression in E. coli” value is “not soluble”. With “MNFTRLLNQVLSTVQKKGNTFSDSPLNSFGGGALVAGVASMLLNGKNRKTITKIGSTAALGYLAYRGYQMWQQNKGRATVTQSDFQPAGETEETYSRTVLRTMIAAAASDGMIDEAERRTIEQESGTDPETAAWLAAEYRLPASIEDIAAAVGNDEALAAEAYLAARLVCADLSRKETVFLARLSQALKLDDNLVESLERQLGF”, the “soluble on expression in E. coli” value was “not soluble”. As for “MAHHHHHHMSQLKIKRGNFLFTSESVNEGHPDKICDQISDAILDSCLREDPYSKVACEVCAKKNYIFIFGEITTKAKVNYDKVTRDVLKHIGYDDESKGLDYKTAEIKVSIDEQSPDIAQCVHENRSPELIGAGDQGIMFGYATDETENYMPLTHHYATLLGKRLTEVRKLGILPYLGPDGKTQITIEYKNKGSCGGHLEPLRVHTVLISTQHAEDIKYEQLKTDLMENVIKYVIPEKLLDNETLYYLNPSGKFVLGGPAADAGLTGRKIICDTYGGWGAHGGGAFSGKDASKVDRSAAYYLRFIAKSLVANKFCRRVLVQASYSIGIANPISLNVNSYGTVSTGYTDYDLEQIILRNFDLRPGFIIQELKLTEPVFSKTSAYGHFGREGDTFTWEKIKDLSHEKNALKN”, the entry is “soluble”; as for “MGSDKIHHHHHHMKVKYIAAILLSTQLVYTACDDMGFLQIKPDSLELTDDRIKTVDDLENLLLGAYNGIRSSGFWGGRTLRGFDVIADDGVADVATFEWVQMSAHTMNLVNAVGRDTWTATYNAINMANQVAFSDLGESILASDPQKEAQFKAEASFIRALGYFHLVRAFGLPYAEETKDIAEMGVPLRLRGVMDRATAFEVVQRSTVSEVYSQIISDLEYAIGNLPGENKVESGRATVDGAKALLAKVYFYKHDFGNAAKYAEQVINTQKYDLDEDLTAKFGRAEKKTVTQEIVAMIPSASLIEDSWGGLRDYRTNGLALPTSRPSNELIAAYDQQNDNRFKTFFKNIDGSWYTLKFDYEYMDGIIIGYNELLLLYAESLAESNGNMNQALNALQKIEKRAYGKANTTTTDRASFIKAVQKERRLEIALQGERLFELKRIKQSVRGEAWDSHKVMFQIPDVEQNGNPDVNMN”, “not soluble”. As for “AIAAEPIELLCWGGDWDLPSVQTDSLTVLAYAKFAGAELTVKFVDWTWRTITASVPQIHYEGTTVTEPTQILNFLRKQRFNADFELTAKQGADTMAYIALLEEKLRPALLHTFWVDAENYANLTRPWFTSHSPFPLNFFVPGRQASLALSRILLTKAESPLLNITEVEGKIYSEAKECLNLLSHRLGNFNFFFGDTPTSLDAFVFGHIAPLIKAPLPSGQLQKHLNQLDNLCQFCNTILKNYFTDATAEKRMDCSPTVAHDFVDANLQKLTQLVNKESNLIEKMDDNLRSSPQHRPHRHEAKPSAPASDRNSTPA”, the entry is “soluble”; as for “MGGSHHHHHHGMASETGPEDPSSMPEESSPRRTPQSIPYQDLPHLVNADGQYLFCRYWKPTGTPKALIFVSHGAGEHSGRYEELARMLMGLDLLVFAHDHVGHGQSEGERMVVSDFHVFVRDVLQHVDSMQKDYPGLPVFLLGHSMGGAIAILTAAERPGHFAGMVLISPLVLANPESATTFKVLAAKVLNLVLPNLSLGPIDSSVLSRNKTEVDIYNSDPLICRAGLKVCFGIQLLNAVSRVERALPKLTVPFLLLQGSADRLCDSKGAYLLMELAKSQDKTLKIYEGAYHVLHKELPEVTNSVFHEINMWVSQRTATAGTASPP”, “not soluble”. For “MSLGIIRSILDTDLYKFTTGYAYAKLFPRAYGEFRFIDRNRQGFTEEFAELVRGEIRAMAALSLTRDEKEFLQRELPYLPPIYIDFLDGFRFDPEEVTVSIDAQGHLDIRAQGLLYRVTLWETPILAVISELYYRFIGAKPDWKQVEEVTRSKGELMREHRTTFSIFGMRRRFSLEVEDRVTDILKQYAGESLFGTSNVHLAHKHGLRVSGTHPHEWIQFHGAIYGYKMANYVAMEDWINVYDGDLGTVLTDTYTTDVFMRNFSKKHAMLFTSLRHDSGDPEIFIEKAVRRYEELRVDPKIKYIIFSDSLTPQRAIEIQKLCAGRIKASFGIGTNLTNDVGGGVEPLNIVMKLWKCKMTAKDDWHYCVKLSDVDGKHTGEPEEILLAMNTLGIKPKEGHHHHHH” the value was “soluble”. “MSLSAHEIRELFLSFFEKKGHTRVKSAPLVPENDPTLLFVNAGMVPFKNVFLGLEKRPYKRATSCQKCLRVSGKHNDLEQVGYTSRHHTFFEMLGNFSFGDYFKKEAIEYAWEFVTEVLKLPKEKLYVSVYKDDEEAYRIWNEHIGIPSERIWRLGEEDNFWQMGDVGPCGPSSEIYVDRGEEYEGDERYLEIWNLVFMQYNRDENGVLTPLPHPNIDTGMGLERIASVLQGKNSNFEIDIIFPLIQFGEEVSGKKYGEKFETDVALRVIADHLRAITFAISDGVIPSNEGRGYVIRRILRRAMRFGYKLGIENPFLYKGVDLVVDIMKEPYPELELSREFVKGIVKGEEKRFIKTLKAGMEYIQEVIQKALEEGRKTLSGKEVFTAYDTYGFPVDLIDEIAREKGLGIDLEGFQCELEEQRERARKHFKVEAKKVKPVYSHLKELGKTSAFVGAAALEHHHHHH”: the “soluble on expression in E. coli” value was “soluble”. Regarding “MSLGQDEALEKALDMIRNADRIVIGGGAGLSACGGLNYMSLEVLKKEFPALARRGYHTLWEALWDDRRTKQQKIGMMAAEVLWACYDFPVIRAYQDLLRMVEDKDYFVLTSNIDRQFHKAGFEEERIFEPQCSASDLQCQTPCCRDIWDGESVWRKIAANMDRETYACREEDIPRCDRCHAPAVQNMRGIKSFIPDKVMWNRIEFEQYIKEASDLRTVFLELGAGFNSPGVIRHPFQRLAYRYPKAALIRMNQEFPKVPEKIKDRSVEIAGDIGEALAQMRRLYEREGHHHHHH”, the “soluble on expression in E. coli” value is given as “soluble”.

With “MGSDKIHHHHHHMKNFVVTTSHKPDREQVMKAKELAEKLGTIYVSRRRLKEFKVDFYYVVEKNRISIKWPGGEFFFHPSSAILRMRNIRSGQKDYLIESLQPEGNEIVLDTTFGLGSEAILMAAFLPEGKVIGLEGSIHIYTIVKYGMENFETDIRWLKDALKRIELYHANFKEYIRSQPDNSFDVVYCDPMFENPVYESSAMNPLRPFAVYDTVNEEDIEEMLRIAKKKVILKSHVKDSLFKRIRVDELKGSRKSGVLYGVIYKR”, the “soluble on expression in E. coli” value was “not soluble”.
